Among the data in paper PMC10251477 (2023) are Kd values, retold here.

Assay [1] has as its target T1, MBP-tagged RocCOR LRRK2 (wild type).
T1 chain: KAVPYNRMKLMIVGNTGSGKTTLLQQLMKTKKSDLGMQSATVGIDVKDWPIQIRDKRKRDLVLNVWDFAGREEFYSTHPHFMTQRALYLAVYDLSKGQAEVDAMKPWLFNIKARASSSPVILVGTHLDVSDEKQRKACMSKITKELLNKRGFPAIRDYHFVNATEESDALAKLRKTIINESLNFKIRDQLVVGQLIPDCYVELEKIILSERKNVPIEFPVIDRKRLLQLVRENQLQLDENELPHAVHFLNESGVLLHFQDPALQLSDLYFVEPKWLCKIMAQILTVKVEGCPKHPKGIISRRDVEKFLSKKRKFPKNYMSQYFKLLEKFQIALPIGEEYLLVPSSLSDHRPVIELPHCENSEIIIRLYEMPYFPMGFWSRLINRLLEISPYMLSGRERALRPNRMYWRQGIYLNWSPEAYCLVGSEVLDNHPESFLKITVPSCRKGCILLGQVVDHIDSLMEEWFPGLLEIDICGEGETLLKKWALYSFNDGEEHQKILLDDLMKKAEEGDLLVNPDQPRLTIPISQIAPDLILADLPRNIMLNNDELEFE
Description: FP.

In assay [2] the target is T2, MBP-tagged R1441C RocCOR LRRK2.
T2 chain: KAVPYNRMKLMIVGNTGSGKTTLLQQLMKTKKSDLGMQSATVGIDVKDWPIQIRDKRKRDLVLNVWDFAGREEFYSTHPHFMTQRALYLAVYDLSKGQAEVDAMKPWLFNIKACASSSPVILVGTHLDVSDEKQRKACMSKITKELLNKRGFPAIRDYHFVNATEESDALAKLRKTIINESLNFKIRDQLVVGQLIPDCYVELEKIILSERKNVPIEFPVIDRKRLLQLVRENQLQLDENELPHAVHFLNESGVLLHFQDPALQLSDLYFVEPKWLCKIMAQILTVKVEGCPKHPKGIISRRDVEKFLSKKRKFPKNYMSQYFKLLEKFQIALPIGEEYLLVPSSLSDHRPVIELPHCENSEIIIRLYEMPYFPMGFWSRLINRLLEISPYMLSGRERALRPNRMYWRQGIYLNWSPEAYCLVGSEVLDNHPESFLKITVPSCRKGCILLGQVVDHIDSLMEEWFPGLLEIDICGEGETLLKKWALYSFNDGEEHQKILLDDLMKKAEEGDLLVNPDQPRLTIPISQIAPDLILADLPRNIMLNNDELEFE
Description: FP.

Bridge positions count the residues as written; N and C are the ends. Square brackets hold non-standard residues; d marks the D form. Primed or numbered codes have the meaning given here. Ends that are not written are not given here. 5/6FAM = 5/6-carboxyfluorescein; S5 = C=CCCC[C@](C)(N)C(=O)O; PEG3′ = not defined here

One may read the Kd as the constant that tells how readily two partners part at equilibrium. Higher therefore signals a looser complex. For the molecule {FAM-PEG3′}-KGEGE[S5]LLK[S5]WALYSFNDGEKH[S5]KKL[S5]KL (staple 6-10, 23-27) [FAM ECOR (doubly stapled Elongated COR peptide)], the dissociation constant (Kd) was determined as 45 nM in assay [1] and 24 nM in assay [2].
As to {5/6FAM-PEG3′}-KGEGE[S5]LLK[S5]WGLYSFNDGEKH[S5]KKL[S5]KL (staple 6-10, 23-27) [FAM ECOR A12G (doubly stapled Elongated COR peptide with A12G)], the Kd worked out at 57 nM in assay [1] and 32 nM in assay [2].
